According to the nanobody polyreactivity screen of Harvey et al. (2022):

experiment: yeast display, Sf9 membrane polyspecificity reagent, FACS + sequencing; frameworks hold sequencing errors
Method in brief: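 Galactose induction of a Saccharomyces cerevisiae BJ5465 synthetic nanobody display library ran 36–48 hours. The cells were then stained for 1 hour at 4 °C with 10% biotinylated, detergent-solubilized Sf9 membrane reagent, pulled down on streptavidin microbeads and FACS-sorted into low and high (top ~1%) gates on expression and reagent-binding fluorescence. Labels for polyreactivity follow the gate of origin.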

Row | Sequence | polyreactivity (PSR sort gate)
1 | QVQLVESGGGLVQAGGSLRLSCAASGFTLRGNAMGWYRQAPGKERELVAAISTGGSTYYADSVKGRFTISRDNAKNTVYLQMNSLKPEDTAVYYCARRGWFHYRYYYWGQGTQVTVSS | high polyreactivity
2 | QVQLVESGGGLVQAGGSLRLSCAASGFTLRKYSMGWYRQAPGKEREFVATISSRAASTYYADSVKGRFTISRDNAKNTVYLQMISLKPEDTAVYYCNKVSPYRGYYWGQGTQVTVSS | high polyreactivity
3 | QVQLVESGGGLVQAGGSLRLSCAASGFTLSRYAMGWYRQAPGKERELVAAIRWSGGSTYYADSVKGRFTISRDNAKNTVYLQMNSLKPEDTAVYYCATRYYLKFLDGYNYWGQGTQVTVSS | high polyreactivity
4 | QVQLVESGGGLVQAGGSLRLSCAASGFTLTAYAMGWYRQARGKEREFVAAISTSGTRTYYADSVKGRFTISRDNAKNTVYLQMNSLKPEDTAVYYCGARYSGYQYWKFNYWGQGTQVTVSS | high polyreactivity
5 | QVQLVESGGGLVQAGGSLRLSCAASGFTLVGYAMGWYRQAPGKERELVAAISSGGRTKYADSVKGRFTFSRDNAKNTVYLQMNSLKPEDTAVYYCKAVFTRGVTQYDHYYWGQGTQVTVSS | high polyreactivity
6 | QVQLVESGGGLVQAGGSLRLSCAASGFTLWLNAMGWSRQAPGKERELVAAITTSDDGTYYADSVNGRFTISRDTAKNTVYLQMNSLKPEDTAVYYCAADYYSVLYDYWGQGTQVTVSS | low polyreactivity
7 | QVQLVESGGGLVQAGGSLRLSCAASGFTLYEYAMGWYRQAPGKERELVAAISSAGNTNYADSVKGRFTISRDNAKNTVYLQLNSLKPEDTAVYYCAKYRYDYTKTEGGYWGQGTQVTVSS | low polyreactivity
8 | QVQLVESGGGLVQAGGSLRLSCAASGFTLYGYAMGWYRQAPGKERELVAGIRYSGGRTYYADSVKGRFTISRDNAKNTVYLQMNSLKPEDTAVYYCAADGGYWRGTGYEYWGQGTQVTVSS | high polyreactivity
9 | QVQLVESGGGLVQAGGSLRLSCAASGFTLYGYTMGWSRQAPGKERELVAAITVSGTSTYYADSVKGRFTISRDNAKYTVSLQMNSLKPEDTAVYYCAARPRRRYYGYDSWGQGTQVSVSS | high polyreactivity
10 | QVQLVESGGGLVQAGGSLRLSCAASGFTLYGYTMGWYRQAPGKERELVAAISGSGGRTYYADSVKGRFTISRDNAKNTVYLQMNSLKPEDTAVYYCAARHHPEYYYWGQGTQVTVSS | high polyreactivity
11 | QVQLVESGGGLVQAGGSLRLSCAASGFTLYNNAMGWYRQAPGKERELVARISGSGGSTYYADSVKGRFTISRDNAKNTVYLQMNSLKPEDTAVYYCNARATYVPTYGYTHWYNYWGQGTQVTVSS | low polyreactivity
12 | QVQLVESGGGLVQAGGSLRLSCAASGFTLYPYAKGWYRQAPGKARELVAAISWSVGSTRYADSVKGRFTISRDNAKNTVYLQMNSLKPEDTAVYYCAARPHGRFSQLRVDWGQGTQVTVSS | low polyreactivity
13 | QVQLVESGGGLVQAGGSLRLSCAASGFTLYRYAMGWYIQAPGKERELVAAISKRGASSYYADSVKGRFTISRDNAKNTVYLQMNSLKPEDTAVYYCAATISRAYKPVKGHYYLGMDYWGQGTQVTVSS | high polyreactivity
14 | QVQLVESGGGLVQAGGSLRLSCAASGFTLYRYAMGWYRQAPGKERELVAAISKRGATSYYADSVKGRFTISRDNAKNTVYLQMNSLKPEDTAVYYCAATISRAYKPVKGHYYLGMDYWGQGTQVTVSS | high polyreactivity
15 | QVQLVESGGGLVQAGGSLRLSCAASGFTLYSYAMGWYRQAPGKERELVAAISWSGTRTYYADTVKGRFTISRDNAKNTVYLQMNSLKPEDTAVYYCAARGYRYGYGYWGQCTQVTVSS | high polyreactivity
16 | QVQLVESGGGLVQAGGSLRLSCAASGFTLYYYAMGWYRQAPGKERELVAAISTRGGRTYYADSVKGRFTISRDNAKNTVYLQINSLKPEDTAVYYCAAAFSLKSLNTRWTWSRYYYWGQGTQVTVSS | high polyreactivity
17 | QVQLVESGGGLVQAGGSLRLSCAASGFTLYYYAMGWYRQAPGKERELVAAISYSGGTTYYADSVKGRFTISRDNAKYTVSLQMNSLKPEDTAVYYCAAEVGGYWADEYLGYDYWGQGTQVTVSS | low polyreactivity
18 | QVQLVESGGGLVQAGGSLRLSCAASGFTSDGYAMGWYRQAPGKERELVAAISWRGGSTYYADSVKGRFTISRDNAKNTVYLQMNSLKPEDTAVYYCAKDYYYGLEHYGYWGQGTQVTVSS | low polyreactivity
19 | QVQLVESGGGLVQAGGSLRLSCAASGFTSGYNVMGWYRQEPGKERELVAAISWRGTSTYYADSVKGRFTISRDNAKNTVYLQMNSLKPEDTAVYYCAADRYWRLSGYEYWGQGTQVTVSS | high polyreactivity
20 | QVQLVESGGGLVQAGGSLRLSCAASGFTSLGNAMGWYRQAPGKERELVAAISRSGGRTYYADSVKGRFTISRDNAKNTVYLQMNSLKPEDTAVYYCNAVRLYGQGGDYWGQGTQVTVSS | high polyreactivity
21 | QVQLVESGGGLVQAGGSLRLSCAASGFTSPTAMGWYRQAPGKVRELVADISVGDGSTYYADSVKGRFTISRDNAKNTVYLQMNSLKREDTAVYYCAAEYWLYWYQDGFGFDYWGQGTQVTVSS | high polyreactivity
22 | QVQLVESGGGLVQAGGSLRLSCAASGFTSRLYAMGWYRQAPGKEREFVAAISWDGTRTYYADSVKGRFTISRDNAKNTVYLQMNSLKPEDTAVYYCNARRRQWQARYDYWGQGTQITVSS | high polyreactivity

Row | Sequence | polyreactivity (PSR sort gate)
23 | QVQLVESGGGLVQAGGSLRLSCAASGFTSSINAMGWYRQEPGKERELVAAIRSGGSTNYADSVKGRFTISRDNAKNTVYLQMNSLKPEDTAVYYCAAVTRVYGKTMGYWGQGTQVTVSS | high polyreactivity
24 | QVQLVESGGGLVQAGGSLRLSCAASGFTVDYYAMGWYLQAPGKERELVAAISSSGGSTYYADSVKGRFTISRDNAKNTVYLLMNSLKPEDTAVYYCATGHSKQYDYWGQGTQVTVSS | high polyreactivity
25 | QVQLVESGGGLVQAGGSLRLSCAASGFTVFYNAMGWYRQAPGKERELVAAITARGGGTYYADSVKGRFTISRDNAKNTVYLQMNSLKPEDTAVYYCAADSFIPPYDHWGQGTQVTVSS | low polyreactivity
26 | QVQLVESGGGLVQAGGSLRLSCAASGFTVNNNGMGWYIQAPGKERELVASISSRTTSTYYADSVKGRFTFSRDKAKNTDYFQTNSLKPEDTAVYYCAAQAWWDGEYDYWGQGTQVTVSS | high polyreactivity
27 | QVQLVESGGGLVQAGGSLRLSCAASGFTVRYYAMGWYRQAPGKERELVAAISWSGGSTYYADSVKGRFTISRDNAKNTVYLQMNSLKPEDTAVYYCNRETSPKVYYPNDYWGQGTQVTVSS | low polyreactivity
28 | QVQLVESGGGLVQAGGSLRLSCAASGFTVSYYVMGWYRQAPGKERELVAGISWSGVSTYYADSVKGRFTISRDNAKNTVYLQMNSLKPEDTAVYYCAAGYDFSFFVPVRYTEYDYWGQGTQVTVSS | high polyreactivity
29 | QVQLVESGGGLVQAGGSLRLSCAASGFTVTRYAMGWYRQAPGKERELVAAITRSGSSTSYADSVKGRFTISRDNAKNTVSLQINSLKPEDTAVYYCAARLHSPRYRYDYWGQGTQVTVSS | high polyreactivity
30 | QVQLVESGGGLVQAGGSLRLSCAASGFTYDNYAMGWYRQAPGKERELVAAIRRSGSRTYYPDSVKGRFTISRDNAKNTVYLQMNSLKPEDTAVYYCAAVWYRLYGYCGQGTQVTVSS | low polyreactivity
31 | QVQLVESGGGLVQAGGSLRLSCAASGFTYGVYAMGWYRPAPGKERELVAAISRRGTSTYYADSVKGRFTISRDNAKNTVYLQMNSLKPEDTAVYFCNARRYQVTVDHWGQGTQVTVSS | high polyreactivity
32 | QVQLVESGGGLVQAGGSLRLSCAASGFTYKYYAMGWYRQAPGKERELVAAITRGGDTYYADSVKGRFSISRDNAKNTVYLQMNSLKPEDTAVYYCNTASDKRAFDYWGQGTQVTVSS | low polyreactivity
33 | QVQLVESGGGLVQAGGSLRLSCAASGFYNTMGWYRQAPGKERELVAAISTGGITNYADSVKGRFTISRDNAKNTVYVLMNSLKPEDTAVYYCPADGYSTVSSSYAYWGQGTQVTVSS | low polyreactivity
34 | QVQLVESGGGLVQAGGSLRLSCAASGFYYYAMGWYRQAPGKERELVAVITYSGGSTYYADSVKGRFTISRDNAKNTVYLQMNSVKPEDTAVYYCAADYRPGYDYWGQGTQVTVSS | low polyreactivity
35 | QVQLVESGGGLVQAGGSLRLSCAASGGAFRYYTMGWYRPAPGKDRELVASISGGGRTYYADSVKGRFTISRDNAKNSVYLQMNSLKPEDTAVYYCNARNRVYYTMSGFGYLGQGTQVTVSS | high polyreactivity
36 | QVQLVESGGGLVQAGGSLRLSCAASGGICRVYAMGWYRQAPGKERELVAAISRSGSSTYYADSVKGRFTISRDNAKNTVYLQMNSLKPEDTAVYYCNAYSQYWLGNNYWGQGTQVTVSS | high polyreactivity
37 | QVQLVESGGGLVQAGGSLRLSCAASGGIFAPYAMGWYRQAPGKERELVATISFSGGSTYYADSVKGRFTISRDNAKNTVYLQMNSLKPEDTAVYYCAKRYIYSLLYGLDYWGQGTQVTVSS | low polyreactivity
38 | QVQLVESGGGLVQAGGSLRLSCAASGGIFASNAMGWYRQAPGKERELVATITRGGSTNYADSVKGRFTISRDNAKNTVYLQMNSLKPEDTAVYYCAARFYSRAFWTAYYYWGQGTQVTVSS | high polyreactivity
39 | QVQLVESGGGLVQAGGSLRLSCAASGGIFAYYAMGWYRQAPGKERELVAAITSRGGRTYYADSVKGRFTISRDNAKNTVYLQMNSLKPEDTAVYYCAAEYINSNYQWYYYWGQGTQVTVSS | high polyreactivity
40 | QVQLVESGGGLVQAGGSLRLSCAASGGIFDRYAMGWSRQAPGKERELVAVISGSVNTYADSVKGRFTISRDNAKNTFYLQMNSLKPEDTAVYYCATQFEGTSGFNYWGQGTQVTVSS | low polyreactivity
41 | QVQLVESGGGLVQAGGSLRLSCAASGGIFFPNAIGWYRQAPGKERELVAAISWSAGSTYYADSVKGRFTISRDNAKNTVYLQMNSLKPEDTAVYYCAAAGSNYTVWYGYYYWGQGTQVTVSS | low polyreactivity
42 | QVQLVESGGGLVQAGGSLRLSCAASGGIFFYYVMGWYRQAPGKERELVAAITSGGSTYYADSVKGRFTISRDNAKNTVYLQMNSLKPEDTAVYSCNGRDVVDYSVWSRYAYDYWGQGTQVTVSS | low polyreactivity
43 | QVQLVESGGGLVQAGGSLRLSCAASGGIFGANAMGWYRQAPGKERELVAAITWRGGSTYYADSVKGRFTISRDNAKNTVYLQMNSLKPEDTAVYYCAKSFVRYKGRYYWGQGTQVTVSS | high polyreactivity
